Measurements reported in the Immune Epitope Database (IEDB).

Experiments:
HLA-B*46:01 = experiment: IEDB peptide-MHC binding, purified MHC/direct/fluorescence; filed as Kd, often an IC50 or EC50 that approximates it; ≥ and ≤ were set here for values at or beyond the usual limits of such assays
HLA-A*24:02 = experiment: as above
HLA-B*15:01 [1] = experiment: as above
HLA-B*40:01 = experiment: as above
HLA-A*69:01 = experiment: as above
HLA-A*26:01 [2] = experiment: as above
HLA-B*44:02 = experiment: as above
HLA-A*03:01 = experiment: as above
HLA-B*27:05 = experiment: as above
HLA-A*02:01 [3] = experiment: as above
HLA-A*01:01 = experiment: as above
HLA-B*08:01 [4] = experiment: as above
HLA-B*58:01 = experiment: as above
HLA-B*07:02 [5] = experiment: as above
HLA-A*11:01 = experiment: as above
HLA-B*08:02 = experiment: as above
HLA-B*48:01 = experiment: as above
HLA-C*12:03 = experiment: as above; details: source organism: Vaccinia virus Tian Tan
HLA-A*31:01 [6] = experiment: as above
HLA-B*08:03 = experiment: as above
HLA-A*30:01 [7] = experiment: IEDB peptide-MHC binding, purified MHC/competitive/radioactivity; filed as Kd, often an IC50 or EC50 that approximates it; ≥ and ≤ were set here for values at or beyond the usual limits of such assays; details: source organism: Vaccinia virus WR
HLA-B*15:01 [8] = experiment: IEDB peptide-MHC binding, purified MHC/competitive/fluorescence; filed as Kd, often an IC50 or EC50 that approximates it; ≥ and ≤ were set here for values at or beyond the usual limits of such assays
HLA-B*18:01 [9] = experiment: as above; details: source organism: Vaccinia virus Tian Tan
HLA-A*26:01 [10] = experiment: as above; details: source organism: Vaccinia virus Tian Tan
HLA-B*35:01 = experiment: as above; details: source organism: Vaccinia virus Tian Tan
HLA-B*15:17 [11] = experiment: as above
HLA-A*68:02 = experiment: as above
HLA-A*26:03 = experiment: as above
HLA-A*02:06 = experiment: as above; details: source organism: Vaccinia virus Tian Tan
HLA-B*18:01 [12] = experiment: IEDB peptide-MHC binding, purified MHC/direct/fluorescence; filed as Kd, often an IC50 or EC50 that approximates it; ≥ and ≤ were set here for values at or beyond the usual limits of such assays
HLA-B*15:09 = experiment: as above; details: source organism: Francisella tularensis subsp. tularensis FSC033
HLA-A*24:03 = experiment: as above; details: source organism: Francisella tularensis subsp. holarctica LVS
HLA-A*26:02 = experiment: IEDB peptide-MHC binding, purified MHC/competitive/fluorescence; filed as Kd, often an IC50 or EC50 that approximates it; ≥ and ≤ were set here for values at or beyond the usual limits of such assays; details: source organism: Francisella tularensis subsp. tularensis FSC198
HLA-A*31:01 [13] = experiment: as above; details: source organism: Francisella tularensis subsp. tularensis FSC198
HLA-A*02:01 [14] = experiment: as above; details: source organism: Francisella tularensis subsp. tularensis FSC198
HLA-B*57:01 [15] = experiment: as above; details: source organism: Francisella tularensis subsp. tularensis FSC198
HLA-B*15:17 [16] = experiment: IEDB peptide-MHC binding, purified MHC/direct/fluorescence; filed as Kd, often an IC50 or EC50 that approximates it; ≥ and ≤ were set here for values at or beyond the usual limits of such assays; details: source organism: Mycobacterium tuberculosis
HLA-B*57:01 [17] = experiment: as above; details: source organism: Mycobacterium tuberculosis
HLA-A*30:01 [18] = experiment: IEDB peptide-MHC binding, purified MHC/competitive/fluorescence; filed as Kd, often an IC50 or EC50 that approximates it; ≥ and ≤ were set here for values at or beyond the usual limits of such assays; details: source organism: Mycobacterium tuberculosis C
HLA-B*08:01 [19] = experiment: as above; details: source organism: Mycobacterium tuberculosis C
HLA-B*07:02 [20] = experiment: as above; details: source organism: Mycobacterium tuberculosis C
[21] = source organism: Influenza A virus (A/goose/Hong Kong/8/1976(H1N1))
[22] = source organism: Influenza A virus (A/Puerto Rico/8/34/Mount Sinai(H1N1))
[23] = source organism: Influenza A virus(A/swine/Shandong/fNY/2003(H9N2))
[24] = source organism: Camelpox virus CMS
[25] = source organism: Vaccinia virus Tian Tan
[26] = source organism: Francisella tularensis subsp. holarctica LVS
[27] = source organism: Francisella tularensis subsp. tularensis FSC033
[28] = source organism: Francisella tularensis subsp. tularensis FSC198
[29] = source organism: Influenza A virus (A/chicken/Vietnam/5/2003(H5N1))
[30] = source organism: Shigella flexneri
[31] = source organism: Mycobacterium tuberculosis
[32] = source organism: Mycobacterium tuberculosis C

## KTTYWWDGL
HLA-B*46:01; [21]
  Kd: ≥ 20 µM
HLA-A*24:02; [21]
  Kd: ≥ 20 µM
HLA-B*15:01 [1]; [21]
  Kd: ≥ 20 µM
HLA-B*40:01; [22]
  Kd: ≥ 5 µM
HLA-A*69:01; [21]
  Kd: ≥ 20 µM
HLA-A*26:01 [2]; [23]
  Kd: ≥ 20 µM
HLA-B*44:02; [21]
  Kd: ≥ 20 µM
HLA-A*03:01; [21]
  Kd: ≥ 20 µM
HLA-B*27:05; [21]
  Kd: ≥ 20 µM
HLA-A*02:01 [3]; [21]
  Kd: ≥ 20 µM
HLA-A*01:01; [21]
  Kd: ≥ 20 µM
HLA-B*08:01 [4]; [21]
  Kd: ≥ 20 µM
HLA-B*58:01; [21]
  Kd: ≥ 5 µM
HLA-B*07:02 [5]; [21]
  Kd: ≥ 20 µM
HLA-A*11:01; [21]
  Kd: ≥ 20 µM
HLA-B*08:02; [23]
  Kd: ≥ 20 µM

## RYLNIYQLW
HLA-A*24:02; source organism: Cryptosporidium parvum Iowa II
  Kd: 0.002 µM

## KVFFGPIYY
HLA-B*48:01; [24]
  Kd: ≥ 20 µM
HLA-C*12:03
  Kd: 0.045 µM
HLA-B*40:01; [24]
  Kd: ≥ 20 µM
HLA-A*69:01; [24]
  Kd: ≥ 20 µM
HLA-A*31:01 [6]; [24]
  Kd: 1.29 µM
HLA-A*03:01; [24]
  Kd: 0.029 µM
HLA-B*27:05; [24]
  Kd: ≥ 20 µM
HLA-A*02:01 [3]; [24]
  Kd: ≥ 20 µM
HLA-A*01:01; [24]
  Kd: ≥ 20 µM
HLA-B*08:01 [4]; source organism: Variola virus
  Kd: ≥ 20 µM
HLA-B*58:01; [24]
  Kd: 0.021 µM
HLA-B*07:02 [5]; [24]
  Kd: ≥ 20 µM
HLA-B*08:03; source organism: Variola virus
  Kd: ≥ 20 µM
HLA-A*11:01; [24]
  Kd: 0.022 µM
HLA-A*30:01 [7]
  Kd: 0.154 µM
HLA-B*15:01 [8]; [25]
  Kd: 0.423 µM
HLA-B*18:01 [9]
  Kd: ≥ 20 µM
HLA-A*26:01 [10]
  Kd: 3 µM
HLA-B*35:01
  Kd: 0.333 µM
HLA-B*15:17 [11]; [25]
  Kd: 0.0216 µM
HLA-A*68:02; [25]
  Kd: ≥ 20 µM
HLA-A*26:03; [25]
  Kd: ≥ 20 µM
HLA-A*02:06
  Kd: 1.8 µM

## IYTVIYYIF
HLA-B*15:01 [1]; [26]
  Kd: ≥ 20 µM
HLA-B*18:01 [12]; [27]
  Kd: 8.93 µM
HLA-A*01:01; [26]
  Kd: ≥ 20 µM
HLA-B*15:09
  Kd: ≥ 20 µM
HLA-B*08:01 [4]; [27]
  Kd: ≥ 20 µM
HLA-B*58:01; [27]
  Kd: 0.15 µM
HLA-B*07:02 [5]; [26]
  Kd: ≥ 20 µM
HLA-A*11:01; [26]
  Kd: ≥ 20 µM
HLA-A*24:03
  Kd: 0.27 µM
HLA-B*08:02; [27]
  Kd: ≥ 20 µM
HLA-A*26:02
  Kd: 1.13 µM
HLA-A*31:01 [13]
  Kd: ≥ 20 µM
HLA-A*02:01 [14]
  Kd: ≥ 20 µM
HLA-B*15:17 [11]; [28]
  Kd: 0.439 µM
HLA-A*68:02; [28]
  Kd: 3.96 µM
HLA-A*26:03; [28]
  Kd: ≥ 20 µM
HLA-B*57:01 [15]
  Kd: ≥ 20 µM

## QTYDWTLNR
HLA-B*46:01; [29]
  Kd: ≥ 20 µM
HLA-A*24:02; [29]
  Kd: ≥ 20 µM
HLA-B*15:01 [1]; [29]
  Kd: ≥ 20 µM
HLA-B*18:01 [12]; [29]
  Kd: ≥ 20 µM
HLA-B*40:01; [29]
  Kd: ≥ 20 µM
HLA-B*44:02; [29]
  Kd: ≥ 20 µM
HLA-A*03:01; [22]
  Kd: 0.376 µM
HLA-B*27:05; [29]
  Kd: ≥ 20 µM
HLA-A*02:01 [3]; [29]
  Kd: ≥ 20 µM
HLA-A*01:01; [29]
  Kd: ≥ 20 µM
HLA-B*08:01 [4]; [29]
  Kd: ≥ 20 µM
HLA-B*58:01; [29]
  Kd: ≥ 20 µM
HLA-B*07:02 [5]; [29]
  Kd: ≥ 20 µM
HLA-B*08:02; source organism: Influenza A virus(A/swine/Henan/3/2004(H9N2))
  Kd: ≥ 20 µM

## LSSIGIPAY
HLA-A*24:02; [30]
  Kd: ≥ 20 µM
HLA-B*15:01 [1]; [30]
  Kd: 0.304 µM
HLA-B*40:01; [30]
  Kd: ≥ 20 µM
HLA-A*69:01; [30]
  Kd: ≥ 20 µM
HLA-A*31:01 [6]; [30]
  Kd: ≥ 20 µM
HLA-B*44:02; [30]
  Kd: ≥ 20 µM
HLA-A*03:01; [30]
  Kd: ≥ 20 µM
HLA-B*27:05; [30]
  Kd: ≥ 20 µM
HLA-A*02:01 [3]; [30]
  Kd: ≥ 20 µM
HLA-A*01:01; [30]
  Kd: 0.366 µM
HLA-B*58:01; [30]
  Kd: 0.178 µM
HLA-B*07:02 [5]; [30]
  Kd: ≥ 20 µM
HLA-A*11:01; [30]
  Kd: ≥ 20 µM

## TIHLATAPK
HLA-B*48:01; [31]
  Kd: ≥ 20 µM
HLA-B*46:01; [31]
  Kd: ≥ 20 µM
HLA-B*18:01 [12]; [31]
  Kd: ≥ 20 µM
HLA-B*40:01; [31]
  Kd: ≥ 20 µM
HLA-A*69:01; [31]
  Kd: 2.33 µM
HLA-A*26:01 [2]; [32]
  Kd: ≥ 20 µM
HLA-A*31:01 [6]; [31]
  Kd: 0.653 µM
HLA-B*27:05; [31]
  Kd: ≥ 20 µM
HLA-A*01:01; [31]
  Kd: ≥ 20 µM
HLA-B*15:17 [16]
  Kd: ≥ 20 µM
HLA-B*58:01; [31]
  Kd: ≥ 20 µM
HLA-B*08:03; [32]
  Kd: ≥ 20 µM
HLA-A*11:01; [31]
  Kd: 0.0087 µM
HLA-B*57:01 [17]
  Kd: ≥ 20 µM
HLA-B*08:02; [32]
  Kd: ≥ 20 µM
HLA-B*15:01 [8]; [32]
  Kd: ≥ 20 µM
HLA-A*30:01 [18]
  Kd: 0.0002 µM
HLA-A*68:02; [32]
  Kd: 0.76 µM
HLA-B*08:01 [19]
  Kd: ≥ 20 µM
HLA-A*26:03; [32]
  Kd: ≥ 20 µM
HLA-B*07:02 [20]
  Kd: ≥ 20 µM
